As usually defined, the koff is the first-order rate constant of dissociation.

This experiment has as its target T1, recombinant E protein domain III of DENV-2, flag and hexahistidine tagged (dengue virus type 2).
T1 chain: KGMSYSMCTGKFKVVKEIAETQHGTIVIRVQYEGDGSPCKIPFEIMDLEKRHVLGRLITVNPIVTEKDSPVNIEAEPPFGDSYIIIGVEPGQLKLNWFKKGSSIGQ
In words: SPR. In general terms: SPR reads the build-up and loss of mass on a sensor chip optically.

B1: humanized DB32-6 monoclonal antibody (antibody, V domains shown)
VH: EVQLQQSGAELVKPGASVNLSCTASGFNIKDTYIHWVKQRPEQGLEWIGRIDPENGNAKYDPNFQAKATIAADTSSNTAYLQLSSLTSEDTAVYYCVRTGSFWYFDVWGQGTLVTVSS
VL: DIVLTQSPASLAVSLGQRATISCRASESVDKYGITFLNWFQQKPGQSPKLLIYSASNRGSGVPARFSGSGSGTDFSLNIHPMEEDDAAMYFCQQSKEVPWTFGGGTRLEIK
On to B1, for which the koff was found to be 1.7e-06 s⁻¹.

B2: murine DB32-6 monoclonal antibody (antibody)
chain 1: QVQLQQSGAELVKPGASVKLSCTASGFNIKDTYIHWVKQRPGQGLEWIGRIDPENGNAKYDPNFQAKATITADTSSNTAYLHLSSLTSEDTAVYYSVRTGSFWYFDVWGAGTTVTVSS
chain 2: not shown
As to B2, the koff was 1.7e-06 s⁻¹.

Source of the values: publication PMC3341331 (2012).
